Experimental data: PMC10197177, “Development of high affinity broadly reactive aptamers for spike protein of multiple SARS-CoV-2 variants†”

B1: Oligo14 (ssDNA)
DNA: CCACATCTACGAGCTCGAACGCCCGGAGGAGACGGGGGCAGGGCGTGTTCACTGCAGACTTGA
B2: M40 (truncated working aptamer) (ssDNA)
DNA: ATCTACGAATTCTCCGCCAAGATAGAGGGTGGGCCGCGGAGAATTCACTGC
B3: K1 (truncated working aptamer) (ssDNA)
DNA: AATGGATCCACATCTACGAGCTCGAACGCCCGGAGGAGACGGGGGCAGGGCGTGTTCACTGCAGACTTGACGAAGCT

Target: Spike protein, wild-type (Wuhan) (SARS-CoV-2 (wild-type, original Wuhan …, UniProt P0DTC2 14-1213))
Assay: ELONA; Tris buffer; […], pH 7.4, room temperature, spike immobilized; […], pH 7.4 ([…]
Details: protein: recombinant; chain copies: 3; label: 3' biotin

| Binder | Kd [nM] |
| --- | --- |
| B1 | 5.29 ± 0.95 |
| B2 | 0.155 ± 0.026 |
| ACGAGCTCGAACGCCCGGAGGAGACGGGGGCAGGGCGTGTTCACTGC (ssDNA) [Oligo30] | 245 ± 8 |
| B3 | 0.066 ± 0.004 |
